# Reference: ChEMBL document CHEMBL1126004, “Synthesis and resolution of 7-fluorotryptophans” (Bioorg Med Chem Lett, 1991)
# Columns and labels:
# [1] = substrate: N[C@@H](Cc1c[nH]c2c(F)cc(F)cc12)C(=O)O; test: (§1) Compound was evaluated for relative maximum velocity (Vmax) in a reaction with tryptophan indole-lyase (tryptophanase) from Escherichia coli
# [2] = substrate: N[C@@H](Cc1c[nH]c2c(F)cccc12)C(=O)O; test: as §1
# [3] = substrate: N[C@@H](Cc1c[nH]c2ccccc12)C(=O)O; test: as §1
# [4] = substrate: N[C@@H](Cc1c[nH]c2c(F)ccc(F)c12)C(=O)O; test: as §1
# [5] = substrate: N[C@@H](Cc1c[nH]c2c(F)cc(F)cc12)C(=O)O; test: (§2) Compound was evaluated for Michaelis-Menten constant (Km) in a reaction with tryptophan indole-lyase (tryptophanase) from Escherichia coli
# [6] = substrate: N[C@@H](Cc1c[nH]c2c(F)cccc12)C(=O)O; test: as §2
# [7] = substrate: N[C@@H](Cc1c[nH]c2ccccc12)C(=O)O; test: as §2
# [8] = substrate: N[C@@H](Cc1c[nH]c2c(F)ccc(F)c12)C(=O)O; test: as §2
protein,measurement,setting,value
"Tryptophan 2,3-dioxygenase (Homo sapiens), P48775 (protein) MSGCPFLGNNFGYTFKKLPVEGSEEDKSQTGVNRASKGGLIYGNYLHLEKVLNAQELQSETKGNKIHDEHLFIITHQAYELWFKQILWELDSVREIFQNGHVRDERNMLKVVSRMHRVSVILKLLVQQFSILETMTALDFNDFREYLSPASGFQSLQFRLLENKIGVLQNMRVPYNRRHYRDNFKGEENELLLKSEQEKTLLELVEAWLERTPGLEPHGFNFWGKLEKNITRGLEEEFIRIQAKEESEEKEEQVAEFQKQKEVLLSLFDEKRHEHLLSKGERRLSYRALQGALMIYFYREEPRFQVPFQLLTSLMDIDSLMTKWRYNHVCMVHRMLGSKAGTGGSSGYHYLRSTVSDRYKVFVDLFNLSTYLIPRHWIPKMNPTIHKFLYTAEYCDSSYFSSDESD",Vmax,[1],58%
same,Vmax,[2],29%
same,Vmax,[3],100%
same,Vmax,[4],42%
same,Km,[5],490 µM
same,Km,[6],640 µM
same,Km,[7],260 µM
same,Km,[8],1700 µM
